Results on one molecule are retold here after patent publication US20190185532A1 (UNIVERSITY OF BIRMINGHAM, published 2019).

The target in experiment [1] is T1, MMRN2^CC-C1q (coiled-coil and C1q domains of human MMRN2, His tag) (human, UniProt Q9H8L6 133-949).
T1 construct: domain: coiled-coil and C1q; HEK293T lysate, blotted under reducing conditions; not shown: C-terminal BirA and His tags of vector pHL-Avitag3
T1 sequence (looked up): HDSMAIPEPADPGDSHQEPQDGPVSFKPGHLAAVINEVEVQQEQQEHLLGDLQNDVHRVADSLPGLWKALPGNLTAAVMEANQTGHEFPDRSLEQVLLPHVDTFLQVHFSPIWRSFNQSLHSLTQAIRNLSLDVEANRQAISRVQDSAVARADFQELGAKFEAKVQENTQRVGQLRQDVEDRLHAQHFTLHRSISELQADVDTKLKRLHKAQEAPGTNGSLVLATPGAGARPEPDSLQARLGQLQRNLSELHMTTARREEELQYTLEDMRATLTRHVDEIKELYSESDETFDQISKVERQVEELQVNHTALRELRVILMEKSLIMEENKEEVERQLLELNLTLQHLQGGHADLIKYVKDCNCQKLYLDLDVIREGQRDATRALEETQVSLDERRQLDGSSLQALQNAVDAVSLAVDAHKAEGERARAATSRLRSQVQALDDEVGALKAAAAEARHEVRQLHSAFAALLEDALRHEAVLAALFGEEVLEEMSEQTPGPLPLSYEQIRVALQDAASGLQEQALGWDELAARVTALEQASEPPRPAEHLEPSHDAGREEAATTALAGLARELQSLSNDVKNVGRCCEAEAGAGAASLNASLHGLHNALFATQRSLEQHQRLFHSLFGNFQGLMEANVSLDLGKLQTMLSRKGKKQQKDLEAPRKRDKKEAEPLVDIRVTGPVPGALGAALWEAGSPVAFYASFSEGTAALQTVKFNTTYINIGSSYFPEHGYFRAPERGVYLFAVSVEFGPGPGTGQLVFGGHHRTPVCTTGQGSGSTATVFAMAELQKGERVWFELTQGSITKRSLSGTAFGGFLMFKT
The experiment is described as follows: far western blot, reduced; HEK293T lysates of His-tagged MMRN2 constructs probed with CLEC14A-ECD-Fc. From the text:
(§1) FIG. 2. […] (A) Diagrams of MMRN2 truncation mutants, showing the elastin microfibril interface (EMI) domain, coiled-coil (CC) domain and complement related C1q domain. The minimal CLEC14A binding fragment is highlighted in black. (B,C) HEK293T were transfected with truncation mutants. Lysates were far western blotted under reduced conditions with CLEC14A extracellular domain fused to an Fc tag (CLEC14A-ECD-Fc) and western blotted by use of His tag antibodies. (B) The smallest binding fragment was identified as MMRN2⁴⁸⁷⁻⁸²⁰, MMRN2^FL fails to bind CLEC14A-ECD-Fc. (C) The smallest MMRN2 fragment binding CLEC14A is MMRN2⁵³⁰⁻⁶²⁴. (D) MMRN2⁴⁹⁵⁻⁶⁷⁴ and MMRN2⁴⁹⁵⁻⁶⁰³ bind to streptavidin under reducing conditions after biotinylation. (E) Flow cytometry histograms of HEK293T transfected with GFP tagged CTLD group 14 family members and stained with biotinylated MMRN2⁴⁹⁵⁻⁶⁷⁴ (grey line), confirming binding to CLEC14A and CD93 but not thrombomodulin. Streptavidin-PE was used as a control for background binding (grey shaded).
(§2) Whole cell protein lysates were made by incubating with lysis buffer (1% (v/v) NP40, 10 mM Tris pH7.5, 150 mM NaCl and 1 mM EDTA) and pelleting insoluble material. […] The epitope tag of each probed protein was detected with secondary antibody incubation (anti-His or anti-Fc HRP conjugate) and then tertiary anti-mouse HRP for the case of anti-His.

The target in experiment [2] is T2, MMRN2^EMI-CC (EMI and coiled-coil domains of human MMRN2, His tag) (human, UniProt Q9H8L6 23-820).
T2 construct: domain: EMI and coiled-coil; HEK293T lysate, blotted under reducing conditions; not shown: C-terminal BirA and His tags of vector pHL-Avitag3
T2 sequence (looked up): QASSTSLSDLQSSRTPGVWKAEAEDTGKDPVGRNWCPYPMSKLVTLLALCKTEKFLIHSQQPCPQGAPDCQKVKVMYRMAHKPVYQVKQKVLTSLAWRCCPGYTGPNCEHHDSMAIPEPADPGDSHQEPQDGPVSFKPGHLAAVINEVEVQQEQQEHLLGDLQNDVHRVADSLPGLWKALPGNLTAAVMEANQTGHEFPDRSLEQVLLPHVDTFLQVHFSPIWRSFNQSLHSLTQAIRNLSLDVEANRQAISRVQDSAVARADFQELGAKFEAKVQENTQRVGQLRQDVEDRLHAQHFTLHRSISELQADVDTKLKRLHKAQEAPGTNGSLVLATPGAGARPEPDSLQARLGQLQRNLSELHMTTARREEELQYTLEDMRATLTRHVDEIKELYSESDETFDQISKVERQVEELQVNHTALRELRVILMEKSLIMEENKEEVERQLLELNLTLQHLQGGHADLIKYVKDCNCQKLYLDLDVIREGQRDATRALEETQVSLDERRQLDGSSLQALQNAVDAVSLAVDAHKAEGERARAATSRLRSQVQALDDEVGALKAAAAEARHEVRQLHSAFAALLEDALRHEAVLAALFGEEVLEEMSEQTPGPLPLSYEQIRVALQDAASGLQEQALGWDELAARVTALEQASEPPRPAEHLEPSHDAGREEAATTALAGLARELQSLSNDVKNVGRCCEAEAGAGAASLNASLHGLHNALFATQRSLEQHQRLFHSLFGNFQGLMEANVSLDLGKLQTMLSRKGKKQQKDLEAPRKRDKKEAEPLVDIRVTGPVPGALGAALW
Described as above.
From the text: as §1, §2

B1: CLEC14A-ECD-Fc (human CLEC14A extracellular domain fused to an Fc tag) (Fc fusion)
chain: EHPTADRAGCSASGACYSLHHATMKRQAAEEACILRGGALSTVRAGAELRAVLALLRAGPGPGGGSKDLLFWVALERRRSHCTLENEPLRGFSWLSSDPGGLESDTLQWVEEPQRSCTARRCAVLQATGGVEPAGWKEMRCHLRANGYLCKYQFEVLCPAPRPGAASNLSYRAPFQLHSAALDFSPPGTEVSALCRGQLPISVTCIADEIGARWDKLSGDVLCPCPGRYLRAGKCAELPNCLDDLGGFACECATGFELGKDGRSCVTSGEGQPTLGGTGVPTRRPPATATSPVPQRTWPIRVDEKLGETPLVPEQDNSVTSIPEIPRWGSQSTMSTLQMSLQAESKATITPSGSVISKFNSTTSSATPQAFDSSS
notes: Expressed in HEK293T cells; also called hCLEC14A-ECD-Fc; C14A-Fc; not shown: human IgG Fc tag
Consider B1, for which the binding result in experiment [1] and in experiment [2] was “binds” throughout.
